Here are results for one protein from article PMC9436932 (Scientific Reports, 2022).

The data set concerns the molecule itself. As to the kind of experiment: SEC. (In general: Size exclusion chromatography separates by hydrodynamic size, large species first.)

B1: TatB^22–171 (soluble membrane-extrinsic cytoplasmic domain of E. coli TatB, transmembrane helix residues 1–21 deleted) (domain or fragment, UniProt P69425 22-171, looked up)
chain: PQRLPVAVKTVAGWIRALRSLATTVQNELTQELKLQEFQDSLKKVEKASLTNLTPELKASMDELRQAAESMKRSYVANDPEKASDEAHTIHNPVVKDNEAAHEGVTPAAAQTQASSPEQKPETTPEPVVKPAADAEPKTAAPSPSSSDKP
notes: also called membrane-extrinsic domain of TatB; soluble TatB
Turning to B1, the binding result is reported as “binds”.
